# From patent publication US20220226473A1, “Nucleic acid nanocarrier drug and preparation method thereof, pharmaceutical composition and application thereof” (BAI YAO ZHI DA (BEIJING) NANOBIO TECHNOLOGY CO., LTD., priority 2018, published 2022)
# Substitutions are numbered along the chain they refer to. {Biotin} = biotin of the strand
# B1: R-15: extension fragment deformation+core short-sequence RNA nanoparticle, SEQ ID NO: 120-122, a-strand 3′ biotin, 2′F (nucleic acid)
# chain 1: GCGGCGAGCGGCGAGGAGCGUUGGGGCCGGAGGCCGG
# chain 2: CCGGCCUCCGGCCCCUUCGGGGCCAGCCGCC
# chain 3: GGCGGCAGGCCCCCAUAGCCCUCGCCGCUCGCCGC
# modifications: chain 1: 2'-fluoro at CU, RNA at AG, 3' {Biotin}, backbone not given here; chain 2: 2'-fluoro at CU, RNA at AG, backbone not given here; chain 3: 2'-fluoro at CU, RNA at AG, backbone not given here; three-strand RNA nanoparticle
# B2: R-16: extension fragment deformation+core short-sequence RNA nanoparticle, SEQ ID NO: 123-125, 3′ biotin, 2′F (nucleic acid)
# chain 1: B1 chain 1 with G16C, G23C
# chain 2: B1 chain 2 with C15G, G20C, G21C
# chain 3: B1 chain 3 with C11G, C12G, C20G
# modifications: chain 1: 2'-fluoro at CU, RNA at AG, 3' {Biotin}, backbone not given here; chain 2: 2'-fluoro at CU, RNA at AG, backbone not given here; chain 3: 2'-fluoro at CU, RNA at AG, backbone not given here; three-strand RNA nanoparticle
# B3: R-17: extension fragment deformation+core short-sequence RNA nanoparticle, SEQ ID NO: 126-128, 3′ biotin, 2′F (nucleic acid)
# chain 1: B1 chain 1
# chain 2: B1 chain 2 with G20C, G21C
# chain 3: B1 chain 3 with C11G, C12G
# modifications: chain 1: 2'-fluoro at CU, RNA at AG, 3' {Biotin}, backbone not given here; chain 2: 2'-fluoro at CU, RNA at AG, backbone not given here; chain 3: 2'-fluoro at CU, RNA at AG, backbone not given here; three-strand RNA nanoparticle
# B4: R-18: extension fragment deformation+core short-sequence RNA nanoparticle, SEQ ID NO: 129-131, 3′ biotin, 2′F (nucleic acid)
# chain 1: B1 chain 1 with G16C, G23C
# chain 2: B1 chain 2 with C15G, G21C
# chain 3: B1 chain 3 with C11G, C20G
# modifications: chain 1: 2'-fluoro at CU, RNA at AG, 3' {Biotin}, backbone not given here; chain 2: 2'-fluoro at CU, RNA at AG, backbone not given here; chain 3: 2'-fluoro at CU, RNA at AG, backbone not given here; RNA nanoparticle drug carrier
# B5: R-19: extension fragment deformation+core short-sequence RNA nanoparticle, SEQ ID NO: 132-134, 3′ biotin, 2′F (nucleic acid)
# chain 1: B1 chain 1 with G16C, G23C
# chain 2: B1 chain 2 with C15G, G21C, G22C
# chain 3: B1 chain 3 with C10G, C11G, C20G
# modifications: chain 1: 2'-fluoro at CU, RNA at AG, 3' {Biotin}, backbone not given here; chain 2: 2'-fluoro at CU, RNA at AG, backbone not given here; chain 3: 2'-fluoro at CU, RNA at AG, backbone not given here; three-strand RNA nanoparticle carrier
# B6: R-20: extension fragment deformation+core short-sequence RNA nanoparticle, SEQ ID NO: 135-137, 3′ biotin, 2′F (nucleic acid)
# chain 1: B1 chain 1 with G15C, G24C
# chain 2: B1 chain 2 with C14G, G20C, G21C
# chain 3: B1 chain 3 with C11G, C12G, C21G
# modifications: chain 1: 2'-fluoro at CU, RNA at AG, 3' {Biotin}, backbone not given here; chain 2: 2'-fluoro at CU, RNA at AG, backbone not given here; chain 3: 2'-fluoro at CU, RNA at AG, backbone not given here; three-strand RNA nanoparticle carrier
# B7: R-21: extension fragment deformation+core short-sequence RNA nanoparticle, SEQ ID NO: 138-140, 3′ biotin, 2′F (nucleic acid)
# chain 1: B1 chain 1 with G15C, G24C
# chain 2: B1 chain 2 with C14G, G21C
# chain 3: B1 chain 3 with C11G, C21G
# modifications: chain 1: 2'-fluoro at CU, RNA at AG, 3' {Biotin}, backbone not given here; chain 2: 2'-fluoro at CU, RNA at AG, backbone not given here; chain 3: 2'-fluoro at CU, RNA at AG, backbone not given here; three-strand RNA nanoparticle carrier
# Assay: Drug loading rate of nucleic acid nanoparticles (chemical loading, absorbance standard curve)
# Format: physicochemical
# Parameters: unit not given here
# Conditions: chemical loading method of Embodiment 5
# Source text: According to the chemical loading method (unless otherwise specified, the method is the same as that of Embodiment 5) of Embodiment 5, the RNA nanoparticles formed by the self-assembly of the previous R-15, R-16, R-17, R-18, R-19, R-20 and R-21 in Embodiment 9, and the DNA nanoparticles formed by the self-assembly of the D-8, D-9, D-10, D-11, D-12, D-13 and D-14 in Embodiment 10 are respectively used as doxorubicin loading carriers, doxorubicin loading rates measured are respectively as follows:
# According to the chemical loading method (unless otherwise specified, the method is the same as that of Embodiment 5) of Embodiment 5, the DNA nanoparticles formed by the self-assembly of the previous D-10 and D-14 in Embodiment 10 are used as a daunorubicin loading carrier.
# According to a chemical loading method of Embodiment 5 (unless otherwise specified, the method is the same as that of Embodiment 5, the same molar number of the epirubicin is used as a loading amount), nucleic acid nanoparticles (a molecular weight is 29550, it is similar to the RNA nanoparticles in Embodiment 1, and a difference is that a fluorescent label on a c-strand is Cy5) are used as a carrier, and respectively loaded with: epirubicin, methotrexate, pirarubicin, daunorubicin, […], 10-hydroxycamptothecin, aspirin and gemcitabine.
# Herein, when a standard curve is drawn, the absorbance of the above drugs on the microplate reader is measured respectively. The absorbance of the epirubicin, methotrexate, pirarubicin, daunorubicin, […], 10-hydroxycamptothecin, aspirin and gemcitabine is respectively detected at the following wavelengths: 492 nm, 303 nm, 492 nm, 492 nm, 265 nm, 384 nm, 225 nm and 268 nm. The standard curves obtained correspondingly are respectively shown in FIG. 48a, FIG. 49, FIG. 50sa, FIG. 51, FIG. 52, FIG. 53, FIG. 54a and FIG. 55. […]
row,Molecule,doxorubicin loading rate
1,B1,20.5
2,B2,29.4
3,B3,30.9
4,B4,34.1
5,B5,27.1
6,B6,30.2
7,B7,20.1

# Assay: Particle size measurement (DLS hydrodynamic size)
# Format: physicochemical
# Conditions: DLS hydrodynamic size
# Source text: 1. Preparing a potential sample (conventional-sequence DNA self-assembly product D-7) and putting into a sample pool, opening a sample pool cover of an instrument, and placing the instrument;
# 2. opening software, and clicking a menu, so a manual measurement parameter setting dialog box appears;
# 3. setting a software detection parameter; and then
# 4. clicking Ok to complete the settings, when a measurement dialog box appears, clicking Start to start, a DLS measurement value result of a hydrodynamic size of the self-assembly product D-7 is shown below in Table 40: […]
row,Molecule,Mean particle size (nm)
1,B1,6.808 nm
2,B2,6.978 nm
3,B3,7.592 nm
4,B4,7.520 nm
5,B5,6.936 nm
6,B6,"7,110 nm"
7,B7,6.720 nm

# Assay: TM value detection by solubility curve method (SYBR Green I)
# Format: physicochemical
# Conditions: RNA nanoparticles; temperature corresponding to ½ RFUmax in 20 to 90 DEG C.
# Experimental: A solubility curve method is used to detect TM values of the 7 groups of the extension fragment deformation+core short-sequence RNA nanoparticles, and the samples are consistent with the potential samples.
# (1) After the sample is diluted with ultrapure water, 5 μg of the diluted sample is mixed with 2 μL of SYBR Green I dye (diluted by 1:200), a final volume is 20 μL, and the dilution concentration is as follows:
# (2) It is incubated for 30 min in the dark at a room temperature; and
# (3) On-machine detection is performed, a program is set to start at 20 DEG C., the temperature rises per second from 0.1 DEG C. to 95 DEG C., and reading is performed every 5 s.
# Due to the particularity of the RNA samples, a temperature corresponding to ½ RFUmax in a range of 20 to 90 DEG C. is used as a sample Tm value in this test.
# A solubility curve method is used to detect TM values of the 7 groups of the extension fragment deformation+core short-sequence DNA nanoparticles, and the samples are consistent with the potential samples.
# (1) After the sample is diluted with ultrapure water, 5 μg of the diluted sample is mixed with 2 μL of SYBR Green I dye (diluted by 1:200). a final volume is 20 μL, and the dilution concentration is as follows: […]
row,Molecule,TM value (° C.) [°C]
1,B1,57.5
2,B2,53.8
3,B3,55.2
4,B4,54.5
5,B5,54.0
6,B6,59.5
7,B7,65.0

# Assay: Electric potential (zeta potential) measurement of self-assembly products
# Format: physicochemical
# Conditions: result over 3 detections, at 25 DEG C.
# Experimental: Measurement method: preparing a potential sample (the self-assembly product is dissolved in ultrapure water) and putting into a sample pool, opening a sample pool cover of an instrument, and placing the instrument;
# opening software, clicking a menu MeasUre€ManUal, so a manual measurement parameter setting dialog box appears;
# setting a software detection parameter;
# and then clicking Ok to complete the settings, after a measurement dialog box appears, clicking start to start.
# and then clicking Ok to complete the settings, after a measurement dialog box appears, clicking Start to start.
# Measurement method: preparing a potential sample (the self-assembly product is dissolved in ultrapure water) and putting into a sample pool, opening a sample pool cover of an instrument, and placing the instrument:
# Measurement result potential detection results of the 7 groups of the extension fragment deformation+core short-sequence RNA nanoparticles at 25 DEG C. are as follows:
# setting a software detection parameter; and then
# clicking Ok to complete the settings, after a measurement dialog box appears, clicking Start to start.
# Measurement result potential detection results of the 7 groups of the extension fragment deformation+core short-sequence DNA nanoparticles at 25 DEG C. are as follows: […]
row,Molecule,"Potential ZP, Experiment result [mV]"
1,B1,−23.23
2,B2,−20.93
3,B3,−23.50
4,B4,−21.27
5,B5,−18.30
6,B6,−17.90
7,B7,−16.10
